Test results as given in publication PMC3184995.

Assays:
[1] = target: Ac-SLP-1, saposin-like protein from the dog hookworm Ancylostoma caninum (Ancylostoma caninum); assay: native gel or EMSA; native gel of purified Ac-SLP-1; migrates at 20 kDa under native conditions, at smaller sizes with SDS
[2] = target: Ac-SLP-1, saposin-like protein from the dog hookworm Ancylostoma caninum (Ancylostoma caninum); assay: SEC-MALS; Superose-12 column; samples injected at 5–10 mg mL^−1; 100 mM NaCl, 20 mM HEPES (pH 7.5) or 100 mM Na-citrate (pH 5.0); same result at both pH

Substance: Ac-SLP-1, saposin-like protein from the dog hookworm Ancylostoma caninum (natural protein)
- stoichiometry N [1]: 2
- stoichiometry N [2]: 2
